Measured values as given in paper PMC9061721 (Nature Communications, 2022).

Columns and labels:
[1] = target: recombinant human insulin (Homo sapiens, UniProt P01308); assay: ELISA; details: both partners purified
[2] = target: T1, H3 peptide 36-57HA2 (wild type) (Influenza A virus A/Hong Kong/1/1968 …, UniProt Q91MA7, strain); assay: ELISA; details: both partners purified
T1 construct: source: synthetic peptide

recombinant human insulin, sequence (P01308 whole entry, looked up): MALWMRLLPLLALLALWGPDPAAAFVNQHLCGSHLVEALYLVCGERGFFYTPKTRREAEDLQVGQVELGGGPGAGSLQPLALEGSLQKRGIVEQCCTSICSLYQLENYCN

Binder	binding result [1]	binding result [2]
antibody 28-2 (antibody, V domains shown) VH: EVQLVESGGGLVQPGGSLRLSCAASGFTFSTYSMNWVRQAPGKGLEWLSYISTSSSTIDYADSVKGRFTISRDNAKNSLYLQMNSLRDEDTAVYYCARDRGCSSTNCYVVGYYFYGMDVWGQGTTVTVSS VL: DIQMIQSPSSVSASVGDRVTITCRASQGISSYLAWYQQKPGKAPKLLIYAASRLQSGVPSRFSGSGSGTDFTLTISGLQPEDFATYHCQQANSFPLTFGQGTRLEIK	no binding	
antibody 28-4 (antibody, V domains shown) VH: EVQLVQSGGGLVQPGGSLGLSCAASGFTFSNYNMNWVRQAPGKGLEWLAYISGSSNTIFYADSVKGRFTISRDNAKNSLHLQMSSLRDEDTAVYYCARDRGCNSNICYVVGYYFYGMDDWGQGTTVTVSS VL: DIQMTQSPSSVSASVGDRVTITCRASQAITSYLVWYQQKPGKAPKLLIYDAARLESGVPSRFSGSGSGTHFTLTINNLQPEDFATYYCQQADSFPLTFGQGTRLEIK	no binding	
antibody 28-6 (antibody, V domains shown) VH: EVQLVQSGGGLAQPGGSLRLSCTASGFAFSSYGMNWVRQTPGKGLEWVSYISSGSTIIDYAGSVKGRFTISRDNAKNSLHLEMNSLRDEDTAVYYCARDRGCSSTTCYVIGYYYYGMDVWGQGTTVTVSS VL: DIQMTQSPSSVSASVGDRVTITCRASQGINRRLVWYQQKPGKVPKLLIYDASSLQCGVPSRFSGSGSGTDFTITISSLQPEDFATYYCQQADSFPLTFGQGTRLEIK	no binding	
3I14 (antibody, V domains shown, source: Expi CHO cells, cotransfected, purified (Protein A Agarose)) VH: QVQLLESGGGVVQPGRSLRLSCAASGFTFSNYGMHWVRQAPGKGLEWVAIISFDGSKKYYANSVKGRSTISRDNSKNTLSLQMNSLGPEDTALYYCAKLPSPYYFDSRFVWVAASAFHFWGQGILVTVSS VL: not shown		binds
